Changes are numbered by the printed parent chain. One block for each molecule: values may come before it.
T1: PD-L2 fuse-expressed with an Fc derived from human IgG1 (human, UniProt Q9BQ51 20-219, limits assumed)
T1 construct: Bought reagent; also called hPD-L2-Fc; not shown: Fc of human IgG1
T1 sequence (looked up): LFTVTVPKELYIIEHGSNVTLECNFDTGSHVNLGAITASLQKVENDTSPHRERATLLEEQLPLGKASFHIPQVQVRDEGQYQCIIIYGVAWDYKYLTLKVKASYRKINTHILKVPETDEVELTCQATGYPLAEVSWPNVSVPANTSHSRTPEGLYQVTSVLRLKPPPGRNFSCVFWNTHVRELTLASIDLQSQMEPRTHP

B1: Toripalimab (antibody, V domains shown)
VH: QGQLVQSGAEVKKPGASVKVSCKASGYTFTDYEMHWVRQAPIHGLEWIGVIESETGGTAYNQKFKGRVTITADKSTSTAYMELSSLRSEDTAVYYCAREGITTVATTYYWYFDVWGQGTTVTVSS
VL: DVVMTQSPLSLPVTLGQPASISCRSSQSIVHSNGNTYLEWYLQKPGQSPQLLIYKVSNRFSGVPDRFSGSGSGTDFTLKISRVEAEDVGVYYCFQGSHVPLTFGQGTKLEIKR
B2: PD-1 variant PD1_56#-16 on cells (receptor)
chain: PGWFLDSPDRPWNPPTFSPALLVVTEGDNATFTCSFSNTSESFVLNWYRMSPSNQTDKLAAFPEDFFTVSQDCRFRVTQLPNGRDFHMSVVRARRNDSGTYLCGAISLSTPVWIKESLRAELRVTERRAEVPTAHPSPSPRPAGQFQTLVVGVVGGLLGSLVLLVWVLAVIRSKRSRLLHSDYMNMTPRRPGPTRKHYQPYAPPRDFAAYRS
notes: On 293T cells and human T cells, from pLV2-PD1-CD28; signal peptide 1-20 left out; also called Mut5
B3: PD-1 variant PD1_56#-108 on cells (receptor)
chain: B2 chain with F66R, F67I, T68N, V69R
notes: On 293T cells and human T cells, from pLV2-PD1-CD28; signal peptide 1-20 left out; also called Mut6
B4: Seq No. 2-RFc (PD-1 variant PD1_56# fused to rabbit IgG Fc) (Fc fusion)
chain: PGWFLDSPDRPWNPPTFSPALLVVTEGDNATFTCSFSNTSESFVLNWYRMSPSNQTDKLAAFPEDRSQPGQDCRFRVTQLPNGRDFHMSVVRARRNDSGTYLCGAISLSTPVWIKESLRAELRVTERRAEVPTAH
notes: Signal peptide 1-20 left out; also called variant 1; Mut1/56#; not shown: rabbit IgG Fc (RFc) of vector pcDNA3.4-RFc
B5: Seq No. 5-RFc (PD-1 variant PD1_56#-15 fused to rabbit IgG Fc) (Fc fusion)
chain: B4 chain with R66F, S67R, Q68N, P69C, G70T
notes: Signal peptide 1-20 left out; also called variant 4; Mut4/56#-15; not shown: rabbit IgG Fc (RFc) of vector pcDNA3.4-RFc
B6: Seq No. 7-RFc (PD-1 variant PD1_56#-108 fused to rabbit IgG Fc) (Fc fusion)
chain: B4 chain with S67I, Q68N, P69R, G70S
notes: Signal peptide 1-20 left out; also called variant 6; not shown: rabbit IgG Fc (RFc) of vector pcDNA3.4-RFc
B7: Seq No. 6-RFc (PD-1 variant PD1_56#-16 fused to rabbit IgG Fc) (Fc fusion)
chain: B4 chain with R66F, S67F, Q68T, P69V, G70S
notes: Signal peptide 1-20 left out; several higher bands in non-reducing SDS-PAGE; also called variant 5; PD1 variant 5 (56#-16); not shown: rabbit IgG Fc (RFc) of vector pcDNA3.4-RFc
B8: Seq No. 4-RFc (PD-1 variant PD1_56#-3 fused to rabbit IgG Fc) (Fc fusion)
chain: B4 chain with E64W, D65M, R66F, S67C, Q68F
notes: Signal peptide 1-20 left out; several higher bands in non-reducing SDS-PAGE; also called variant 3; Mut3/56#-3; not shown: rabbit IgG Fc (RFc) of vector pcDNA3.4-RFc
B9: Seq No. 3-RFc (PD-1 variant PD1_56#-2 fused to rabbit IgG Fc) (Fc fusion)
chain: B4 chain with E64F, D65L, R66F, S67N, Q68L
notes: Signal peptide 1-20 left out; several higher bands in non-reducing SDS-PAGE; also called variant 2; Mut2/56#-2; not shown: rabbit IgG Fc (RFc) of vector pcDNA3.4-RFc

Legend:
[1] = target: wild-type human PD-1 (hPD-1) on cells (human); assay: cell-based or functional assay
[2] = target: Seq No. 2-RFc (PD-1 variant PD1_56# fused to rabbit IgG Fc) (human; rabbit) (UniProt Q15116); assay: SPR Biacore T200; antibody stationary phase
[3] = target: Seq No. 3-RFc (PD-1 variant PD1_56#-2 fused to rabbit IgG Fc) (human; rabbit) (UniProt Q15116); assay: SPR Biacore T200; antibody stationary phase
[4] = target: Seq No. 4-RFc (PD-1 variant PD1_56#-3 fused to rabbit IgG Fc) (human; rabbit) (UniProt Q15116); assay: SPR Biacore T200; antibody stationary phase
[5] = target: Seq No. 7-RFc (PD-1 variant PD1_56#-108 fused to rabbit IgG Fc) (human; rabbit) (UniProt Q15116); assay: SPR Biacore T200; antibody stationary phase
[6] = target: Seq No. 1-RFc (wild-type PD-1 fused to rabbit IgG Fc) (human; rabbit) (UniProt Q15116); assay: SPR Biacore T200; antibody stationary phase
[7] = target: Seq No. 6-RFc (PD-1 variant PD1_56#-16 fused to rabbit IgG Fc) (human; rabbit) (UniProt Q15116); assay: SPR Biacore T200; antibody stationary phase
[8] = target: Seq No. 5-RFc (PD-1 variant PD1_56#-15 fused to rabbit IgG Fc) (human; rabbit) (UniProt Q15116); assay: SPR Biacore T200; antibody stationary phase
[9] = target: Seq No. 2-RFc (PD-1 variant PD1_56# fused to rabbit IgG Fc) (human; rabbit) (UniProt Q15116); assay: SPR Biacore T200
[10] = target: Seq No. 3-RFc (PD-1 variant PD1_56#-2 fused to rabbit IgG Fc) (human; rabbit) (UniProt Q15116); assay: SPR Biacore T200
[11] = target: Seq No. 4-RFc (PD-1 variant PD1_56#-3 fused to rabbit IgG Fc) (human; rabbit) (UniProt Q15116); assay: SPR Biacore T200
[12] = target: Seq No. 7-RFc (PD-1 variant PD1_56#-108 fused to rabbit IgG Fc) (human; rabbit) (UniProt Q15116); assay: SPR Biacore T200
[13] = target: Seq No. 1-RFc (wild-type PD-1 fused to rabbit IgG Fc) (human; rabbit) (UniProt Q15116); assay: SPR Biacore T200
[14] = target: Seq No. 6-RFc (PD-1 variant PD1_56#-16 fused to rabbit IgG Fc) (human; rabbit) (UniProt Q15116); assay: SPR Biacore T200
[15] = target: Seq No. 5-RFc (PD-1 variant PD1_56#-15 fused to rabbit IgG Fc) (human; rabbit) (UniProt Q15116); assay: SPR Biacore T200
[16] = target: B4; assay: SPR Biacore T200
[17] = target: T2, PD-L1 fuse-expressed with an Fc derived from human IgG1 (human, UniProt Q9NZQ7 19-239); assay: flow cytometry, human T cells
T2 construct: Bought reagent; also called PD-L1-Fc; hPD-L1-Fc; not shown: Fc of human IgG1
T2 sequence (Q9NZQ7 19-239 limits assumed): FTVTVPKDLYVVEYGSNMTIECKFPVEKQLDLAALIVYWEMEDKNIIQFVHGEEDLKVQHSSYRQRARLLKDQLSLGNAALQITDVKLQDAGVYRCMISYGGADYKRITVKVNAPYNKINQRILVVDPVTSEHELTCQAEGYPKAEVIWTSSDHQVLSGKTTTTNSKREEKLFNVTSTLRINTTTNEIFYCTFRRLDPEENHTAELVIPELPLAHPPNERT

[18] = target: T1, PD-L2 fuse-expressed with an Fc derived …; assay: flow cytometry, human T cells
[19] = target: T2, PD-L1 fuse-expressed with an Fc derived …; assay: SPR Biacore T200; PD1-RFc mobile phase
[20] = target: T1, PD-L2 fuse-expressed with an Fc derived …; assay: SPR Biacore T200; PD1-RFc mobile phase
[21] = target: T2, PD-L1 fuse-expressed with an Fc derived …; assay: SPR Biacore T200
[22] = target: T1, PD-L2 fuse-expressed with an Fc derived …; assay: SPR Biacore T200

IL-2 concentration (pg/ml) at 0.8 nM [1]: 432 pg/mL | IL-2 concentration (pg/ml) at 1.6 nM [1]: 440 pg/mL | IL-2 concentration (pg/ml) at 3.2 nM [1]: 440 pg/mL | IL-2 concentration (pg/ml) at 6.4 nM [1]: 56.1 pg/mL | IL-2 concentration (pg/ml) at 12.8 nM [1]: 36.9 pg/mL | IL-2 concentration (pg/ml) at 25.6 nM [1]: 47.7 pg/mL | IL-2 concentration (pg/ml) at 51.2 nM [1]: 80.5 pg/mL | IL-2 concentration (pg/ml) at 102.4 nM [1]: 126 pg/mL | koff [2]: 0.000174 s⁻¹ | kon [2]: 2.05e+06 M⁻¹ s⁻¹ | koff [3]: 0.00105 s⁻¹ | kon [3]: 588000 M⁻¹ s⁻¹ | koff [4]: 0.00203 s⁻¹ | kon [4]: 691000 M⁻¹ s⁻¹ | koff [5]: 0.000109 s⁻¹ | kon [5]: 2.21e+06 M⁻¹ s⁻¹ | koff [6]: 4.21e-05 s⁻¹ | kon [6]: 3.12e+06 M⁻¹ s⁻¹ | koff [7]: 0.000836 s⁻¹ | kon [7]: 2.66e+06 M⁻¹ s⁻¹ | koff [8]: 0.0003 s⁻¹ | kon [8]: 530000 M⁻¹ s⁻¹ | Kd [9]: 0.085 nM | Kd [10]: 1.78 nM | Kd [11]: 2.94 nM | Kd [12]: 0.0492 nM | Kd [13]: 0.0135 nM | Kd [14]: 0.315 nM | Kd [15]: 0.567 nM
Molecule: Tilelizumab (antibody)

Molecule: B1
Kd [16]: 0.395 nM

Molecule: B2
binding result [17]: binds | binding result [18]: binds

Molecule: B3
binding result [17]: binds | binding result [18]: binds

Molecule: B4
koff [19]: 0.00129 s⁻¹ | kon [19]: 2.82e+06 M⁻¹ s⁻¹ | koff [20]: 0.00657 s⁻¹ | kon [20]: 5.6e+06 M⁻¹ s⁻¹ | Kd [21]: 0.457 nM | Kd [22]: 1.17 nM

Molecule: B5
koff [19]: 0.00343 s⁻¹ | kon [19]: 1.52e+06 M⁻¹ s⁻¹ | koff [20]: 0.0096 s⁻¹ | kon [20]: 2.12e+06 M⁻¹ s⁻¹ | Kd [21]: 2.25 nM | Kd [22]: 4.53 nM

Molecule: B6
koff [19]: 0.000771 s⁻¹ | kon [19]: 2.01e+06 M⁻¹ s⁻¹ | koff [20]: 0.00356 s⁻¹ | kon [20]: 1.06e+07 M⁻¹ s⁻¹ | Kd [21]: 0.384 nM | Kd [22]: 0.336 nM

Molecule: B7
koff [19]: 0.00153 s⁻¹ | kon [19]: 2.32e+06 M⁻¹ s⁻¹ | koff [20]: 0.00483 s⁻¹ | kon [20]: 6.05e+06 M⁻¹ s⁻¹ | Kd [21]: 0.657 nM | Kd [22]: 0.798 nM

Molecule: B8
koff [19]: 0.00266 s⁻¹ | kon [19]: 67400 M⁻¹ s⁻¹ | koff [20]: 0.0019 s⁻¹ | kon [20]: 6420 M⁻¹ s⁻¹ | Kd [21]: 39.6 nM | Kd [22]: 296 nM

Molecule: B9
koff [20]: 1.25e-05 s⁻¹ | kon [20]: 4.22e+06 M⁻¹ s⁻¹ | Kd [21]: 4.12 nM | Kd [22]: 0.00296 nM

Reference: US20260272979A1 (CHINEO MEDICAL TECHNOLOGY, published 2026)
